According to paper PMC7585439, “UvrD helicase–RNA polymerase interactions are governed by UvrD’s carboxy-terminal Tudor domain” (Communications Biology, 2020):

What was measured:
UvrD-CTD [1] = target: T1, UvrD-CTD (Escherichia coli, UniProt P03018 645-720); assay: BLI; NMR titrations at 298 K: UvrD-CTD in UvrD NMR buffer (20 mM K-phosphate, 50 mM KCl, 5 mM DTT, pH 6.5, 10% D2O), Mfd-RID in PBS pH 7.4 with 10% D2O; BLI buffer not given in the material; settings: protein: recombinant, tags: N-terminal His6, uncleavable, label: biotin
T1 sequence: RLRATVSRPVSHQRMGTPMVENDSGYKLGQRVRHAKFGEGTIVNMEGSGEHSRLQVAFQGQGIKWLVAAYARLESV

UvrD-CTD [2] = target: T1, UvrD-CTD; assay: NMR titration; up to 2 molar equivalents DNA; NMR titrations at 298 K: UvrD-CTD in UvrD NMR buffer (20 mM K-phosphate, 50 mM KCl, 5 mM DTT, pH 6.5, 10% D2O), Mfd-RID in PBS pH 7.4 with 10% D2O; BLI buffer not given in the material; settings: protein: recombinant, tags: N-terminal His6, uncleavable
[3] = target: T2, RNA polymerase core enzyme (subunits α2ββ'ω) (E. coli, UniProt P0A7Z4 1-329; P0A8V2 1-1342; P0A8T7 1-1407; P0A800 1-91); assay: BLI; Octet RED96, 303 K; biotinylated ligand on streptavidin biosensors, analyte in a dose series, 0.1% BSA; association and dissociation 1000 s each; which partner was immobilised is not told; settings: both partners purified
T2 construct: RNA polymerase subunit alpha, E. coli; RNA polymerase subunit beta, E. coli; RNA polymerase subunit beta', E. coli; RNA polymerase subunit omega, E. coli; also called RNAP core-enzyme; source: expressed from plasmid pIA900, purified as by Svetlov and Artsimovitch with an added SEC step (Superose6); copies: 2 + 1 + 1 + 1
T2 sequence (P0A7Z4 whole entry, chain 1 of 4): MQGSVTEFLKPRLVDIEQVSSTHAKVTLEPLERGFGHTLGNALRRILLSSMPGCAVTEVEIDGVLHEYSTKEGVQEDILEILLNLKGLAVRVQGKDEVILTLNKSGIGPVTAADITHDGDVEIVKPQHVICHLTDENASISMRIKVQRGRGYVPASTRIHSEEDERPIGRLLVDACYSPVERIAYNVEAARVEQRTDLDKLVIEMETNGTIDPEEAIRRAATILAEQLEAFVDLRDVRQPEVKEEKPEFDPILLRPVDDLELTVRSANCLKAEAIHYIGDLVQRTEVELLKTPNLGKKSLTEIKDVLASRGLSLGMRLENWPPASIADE
T2 sequence (P0A8V2 whole entry, chain 2 of 4): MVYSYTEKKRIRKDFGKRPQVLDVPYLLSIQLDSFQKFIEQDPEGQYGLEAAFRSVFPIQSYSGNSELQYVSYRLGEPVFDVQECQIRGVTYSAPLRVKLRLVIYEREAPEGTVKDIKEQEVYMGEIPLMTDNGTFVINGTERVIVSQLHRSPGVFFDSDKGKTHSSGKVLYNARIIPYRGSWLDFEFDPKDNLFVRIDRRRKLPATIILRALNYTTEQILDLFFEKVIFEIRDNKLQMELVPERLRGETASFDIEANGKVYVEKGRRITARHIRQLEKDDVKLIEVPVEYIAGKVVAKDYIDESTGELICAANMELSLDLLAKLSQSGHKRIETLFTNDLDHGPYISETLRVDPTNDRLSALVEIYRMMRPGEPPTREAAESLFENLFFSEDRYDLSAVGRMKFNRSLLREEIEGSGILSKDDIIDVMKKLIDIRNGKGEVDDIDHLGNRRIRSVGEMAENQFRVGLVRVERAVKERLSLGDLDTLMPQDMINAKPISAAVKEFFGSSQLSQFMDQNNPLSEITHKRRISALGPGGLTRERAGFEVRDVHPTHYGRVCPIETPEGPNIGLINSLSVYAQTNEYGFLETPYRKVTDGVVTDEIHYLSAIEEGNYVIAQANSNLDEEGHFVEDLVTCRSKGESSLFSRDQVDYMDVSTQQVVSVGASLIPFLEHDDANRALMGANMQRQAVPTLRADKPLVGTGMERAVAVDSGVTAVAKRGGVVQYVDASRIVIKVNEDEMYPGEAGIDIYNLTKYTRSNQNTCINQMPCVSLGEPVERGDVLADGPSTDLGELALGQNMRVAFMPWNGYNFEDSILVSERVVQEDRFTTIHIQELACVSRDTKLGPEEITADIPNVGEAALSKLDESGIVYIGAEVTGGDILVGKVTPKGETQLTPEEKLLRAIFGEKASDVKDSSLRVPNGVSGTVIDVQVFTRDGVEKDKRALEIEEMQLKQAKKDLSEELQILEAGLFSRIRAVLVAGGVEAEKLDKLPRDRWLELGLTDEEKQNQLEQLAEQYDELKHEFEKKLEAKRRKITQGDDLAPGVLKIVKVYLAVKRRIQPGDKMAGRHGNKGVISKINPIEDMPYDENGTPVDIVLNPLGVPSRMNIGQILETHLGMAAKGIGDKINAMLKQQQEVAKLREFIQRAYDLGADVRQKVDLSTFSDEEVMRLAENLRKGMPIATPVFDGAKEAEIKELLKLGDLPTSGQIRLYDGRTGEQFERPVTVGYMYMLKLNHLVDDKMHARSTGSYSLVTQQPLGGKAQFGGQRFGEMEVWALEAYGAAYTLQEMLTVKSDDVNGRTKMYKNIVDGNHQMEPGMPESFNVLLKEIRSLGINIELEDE
T2 sequence (P0A8T7 whole entry, chain 3 of 4): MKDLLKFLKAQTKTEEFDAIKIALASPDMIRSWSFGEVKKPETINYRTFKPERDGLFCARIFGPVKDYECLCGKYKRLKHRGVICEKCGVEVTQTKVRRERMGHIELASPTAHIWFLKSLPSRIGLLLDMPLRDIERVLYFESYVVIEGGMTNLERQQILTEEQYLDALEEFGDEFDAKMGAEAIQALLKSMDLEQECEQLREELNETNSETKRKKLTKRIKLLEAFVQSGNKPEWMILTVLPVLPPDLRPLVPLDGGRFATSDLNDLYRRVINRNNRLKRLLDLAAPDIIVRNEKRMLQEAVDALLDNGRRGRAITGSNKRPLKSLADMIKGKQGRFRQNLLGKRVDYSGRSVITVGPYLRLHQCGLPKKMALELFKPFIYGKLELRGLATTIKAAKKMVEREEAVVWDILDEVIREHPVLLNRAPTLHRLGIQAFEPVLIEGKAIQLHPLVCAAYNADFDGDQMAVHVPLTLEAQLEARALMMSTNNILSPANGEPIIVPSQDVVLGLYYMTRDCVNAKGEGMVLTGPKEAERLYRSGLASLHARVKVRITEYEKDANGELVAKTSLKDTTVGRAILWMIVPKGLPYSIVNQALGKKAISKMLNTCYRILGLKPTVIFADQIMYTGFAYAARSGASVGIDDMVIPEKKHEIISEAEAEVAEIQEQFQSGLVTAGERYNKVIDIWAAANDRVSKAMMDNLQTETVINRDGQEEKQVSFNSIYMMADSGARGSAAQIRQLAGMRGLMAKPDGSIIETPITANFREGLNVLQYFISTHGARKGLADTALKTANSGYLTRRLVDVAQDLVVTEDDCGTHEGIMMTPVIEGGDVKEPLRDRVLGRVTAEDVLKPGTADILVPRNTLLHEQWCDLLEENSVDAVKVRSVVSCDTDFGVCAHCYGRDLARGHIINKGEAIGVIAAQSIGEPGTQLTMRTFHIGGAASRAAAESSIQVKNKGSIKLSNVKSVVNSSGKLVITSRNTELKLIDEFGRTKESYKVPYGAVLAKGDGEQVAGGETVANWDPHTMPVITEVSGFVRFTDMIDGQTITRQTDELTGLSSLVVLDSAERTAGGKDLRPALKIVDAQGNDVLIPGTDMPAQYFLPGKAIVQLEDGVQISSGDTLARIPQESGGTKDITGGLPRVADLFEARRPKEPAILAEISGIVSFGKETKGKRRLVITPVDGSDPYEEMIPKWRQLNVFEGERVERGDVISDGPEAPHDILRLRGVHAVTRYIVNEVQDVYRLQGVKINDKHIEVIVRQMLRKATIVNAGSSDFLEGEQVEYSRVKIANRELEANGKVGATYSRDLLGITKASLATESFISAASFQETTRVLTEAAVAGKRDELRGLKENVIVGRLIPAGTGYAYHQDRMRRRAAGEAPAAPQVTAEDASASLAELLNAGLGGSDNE
T2 sequence (P0A800 whole entry, chain 4 of 4): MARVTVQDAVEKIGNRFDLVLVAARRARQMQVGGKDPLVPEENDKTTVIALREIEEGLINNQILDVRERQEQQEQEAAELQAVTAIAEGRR

Mfd-RID = Mfd-RID (Escherichia coli, UniProt P30958 472-547); assay: NMR titration; 2 molar equivalents DNA; NMR titrations at 298 K: UvrD-CTD in UvrD NMR buffer (20 mM K-phosphate, 50 mM KCl, 5 mM DTT, pH 6.5, 10% D2O), Mfd-RID in PBS pH 7.4 with 10% D2O; BLI buffer not given in the material; settings: protein: recombinant; tags: His6-SUMO removed by SenP1; single strand
[4] = self-complementary 28 bp duplex of 2 identical strands, 3' overhangs 7 nt, snap cooled after dissolving

B1: biotinylated 35mer dsDNA (dsDNA)
DNA 1: CGAGCACTGCACTCGAGTGCAGTGCTCGTTGTTAT
DNA 2: B1 DNA 1
modifications: biotin (position not given)
- Kd (UvrD-CTD [1]; [4]): 1.9 ± 0.17 µM

B2: 35mer dsDNA (dsDNA)
DNA 1: B1 DNA 1
DNA 2: B1 DNA 1
- binding result (UvrD-CTD [2]; [4]): binds

B3: UvrD-ΔCTD (1-664) (domain or fragment, E. coli, UniProt P03018 1-664, looked up)
chain: MDVSYLLDSLNDKQREAVAAPRSNLLVLAGAGSGKTRVLVHRIAWLMSVENCSPYSIMAVTFTNKAAAEMRHRIGQLMGTSQGGMWVGTFHGLAHRLLRAHHMDANLPQDFQILDSEDQLRLLKRLIKAMNLDEKQWPPRQAMWYINSQKDEGLRPHHIQSYGNPVEQTWQKVYQAYQEACDRAGLVDFAELLLRAHELWLNKPHILQHYRERFTNILVDEFQDTNNIQYAWIRLLAGDTGKVMIVGDDDQSIYGWRGAQVENIQRFLNDFPGAETIRLEQNYRSTSNILSAANALIENNNGRLGKKLWTDGADGEPISLYCAFNELDEARFVVNRIKTWQDNGGALAECAILYRSNAQSRVLEEALLQASMPYRIYGGMRFFERQEIKDALSYLRLIANRNDDAAFERVVNTPTRGIGDRTLDVVRQTSRDRQLTLWQACRELLQEKALAGRAASALQRFMELIDALAQETADMPLHVQTDRVIKDSGLRTMYEQEKGEKGQTRIENLEELVTATRQFSYNEEDEDLMPLQAFLSHAALEAGEGQADTWQDAVQLMTLHSAKGLEFPQVFIVGMEEGMFPSQMSLDEGGRLEEERRLAYVGVTRAMQKLTLTYAETRRLYGKEVYHRPSRFIGELPEECVEEVRLRATVSRPVSHQRMGTPMV
notes: UvrD helicase (Helicase II), E. coli, residues 1-664; made by inserting a stop codon; Probably the His6 full-length construct; also called truncated UvrD lacking the CTD; source: E. coli BL21(λDE3) pLysS, purified (Ni-NTA, SEC)
- Kd [3]: 1.9 ± 0.15 µM

B4: Mfd RNAP Interaction Domain (Mfd-RID, residues 472-547; Domain 4) (domain or fragment, E. coli, UniProt P30958 472-547, looked up)
chain: RNLAELHIGQPVVHLEHGVGRYAGMTTLEAGGITGEYLMLTYANDAKLYVPVSSLHLISRYAGGAEENAPLHKLGG
notes: Mfd (Transcription-Repair Coupling Factor, TRCF), E. coli, residues 472-547, comprising Domain 4; Used [U-15N] labelled in the NMR experiments; source: E. coli BL21 Star (λDE3), purified (Ni-NTA, SenP1 cleavage, second Ni-NTA, SEC); not shown: His6, N-terminal, cleaved; Sumo, N-terminal, cleaved
- Kd [3]: 0.25 ± 0.052 µM

B5: Mfd full-length (1-1148) (enzyme, E. coli, UniProt P30958 1-1148, looked up)
chain: MPEQYRYTLPVKAGEQRLLGELTGAACATLVAEIAERHAGPVVLIAPDMQNALRLHDEISQFTDQMVMNLADWETLPYDSFSPHQDIISSRLSTLYQLPTMQRGVLIVPVNTLMQRVCPHSFLHGHALVMKKGQRLSRDALRTQLDSAGYRHVDQVMEHGEYATRGALLDLFPMGSELPYRLDFFDDEIDSLRVFDVDSQRTLEEVEAINLLPAHEFPTDKAAIELFRSQWRDTFEVKRDPEHIYQQVSKGTLPAGIEYWQPLFFSEPLPPLFSYFPANTLLVNTGDLETSAERFQADTLARFENRGVDPMRPLLPPQSLWLRVDELFSELKNWPRVQLKTEHLPTKAANANLGFQKLPDLAVQAQQKAPLDALRKFLETFDGPVVFSVESEGRREALGELLARIKIAPQRIMRLDEASDRGRYLMIGAAEHGFVDTVRNLALICESDLLGERVARRRQDSRRTINPDTLIRNLAELHIGQPVVHLEHGVGRYAGMTTLEAGGITGEYLMLTYANDAKLYVPVSSLHLISRYAGGAEENAPLHKLGGDAWSRARQKAAEKVRDVAAELLDIYAQRAAKEGFAFKHDREQYQLFCDSFPFETTPDQAQAINAVLSDMCQPLAMDRLVCGDVGFGKTEVAMRAAFLAVDNHKQVAVLVPTTLLAQQHYDNFRDRFANWPVRIEMISRFRSAKEQTQILAEVAEGKIDILIGTHKLLQSDVKFKDLGLLIVDEEHRFGVRHKERIKAMRANVDILTLTATPIPRTLNMAMSGMRDLSIIATPPARRLAVKTFVREYDSMVVREAILREILRGGQVYYLYNDVENIQKAAERLAELVPEARIAIGHGQMRERELERVMNDFHHQRFNVLVCTTIIETGIDIPTANTIIIERADHFGLAQLHQLRGRVGRSHHQAYAWLLTPHPKAMTTDAQKRLEAIASLEDLGAGFALATHDLEIRGAGELLGEEQSGSMETIGFSLYMELLENAVDALKAGREPSLEDLTSQQTEVELRMPSLLPDDFIPDVNTRLSFYKRIASAKTENELEEIKVELIDRFGLLPDPARTLLDIARLRQQAQKLGIRKLEGNEKGGVIEFAEKNHVNPAWLIGLLQKQPQHYRLDGPTRLKFIQDLSERKTRIEWVRQFMRELEENAIA
notes: Mfd (Transcription-Repair Coupling Factor, TRCF), E. coli, full-length, residues 1-1148; Construct bought from Genscript; Used [U-2H,15N] labelled in the NMR experiments; also called Transcription-Repair Coupling Factor; TRCF; source: E. coli BL21 Star (λDE3), purified (Ni-NTA, SEC)
- Kd [3]: 0.31 ± 0.014 µM

B6: UvrD carboxy-terminal region (UvrD-CTD, residues 645-720) (domain or fragment, E. coli, UniProt P03018 645-720, looked up)
chain: T1 sequence
notes: UvrD helicase (Helicase II), E. coli, residues 645-720; The His6 tag is called uncleavable; Used [U-15N] labelled in the NMR experiments; source: E. coli BL21(λDE3) pLysS, purified (Ni-NTA, SEC); not shown: His6, N-terminal, kept
- Kd [3]: 0.077 ± 0.0003 µM

B7: biotinylated 17mer ssDNA (ssDNA)
DNA: GCAGTGCTCGTTTTTTT
modifications: biotin (position not given)
- Kd (UvrD-CTD [1]; single strand): 3.8 ± 0.47 µM

B8: 17mer ssDNA (ssDNA)
DNA: GCAGTGCTCGTTTTTTT
- binding result (Mfd-RID): no binding
- binding result (UvrD-CTD [2]; single strand): binds

B9: UvrD helicase, full-length (1-720) (enzyme, E. coli, UniProt P03018 1-720, looked up)
chain: MDVSYLLDSLNDKQREAVAAPRSNLLVLAGAGSGKTRVLVHRIAWLMSVENCSPYSIMAVTFTNKAAAEMRHRIGQLMGTSQGGMWVGTFHGLAHRLLRAHHMDANLPQDFQILDSEDQLRLLKRLIKAMNLDEKQWPPRQAMWYINSQKDEGLRPHHIQSYGNPVEQTWQKVYQAYQEACDRAGLVDFAELLLRAHELWLNKPHILQHYRERFTNILVDEFQDTNNIQYAWIRLLAGDTGKVMIVGDDDQSIYGWRGAQVENIQRFLNDFPGAETIRLEQNYRSTSNILSAANALIENNNGRLGKKLWTDGADGEPISLYCAFNELDEARFVVNRIKTWQDNGGALAECAILYRSNAQSRVLEEALLQASMPYRIYGGMRFFERQEIKDALSYLRLIANRNDDAAFERVVNTPTRGIGDRTLDVVRQTSRDRQLTLWQACRELLQEKALAGRAASALQRFMELIDALAQETADMPLHVQTDRVIKDSGLRTMYEQEKGEKGQTRIENLEELVTATRQFSYNEEDEDLMPLQAFLSHAALEAGEGQADTWQDAVQLMTLHSAKGLEFPQVFIVGMEEGMFPSQMSLDEGGRLEEERRLAYVGVTRAMQKLTLTYAETRRLYGKEVYHRPSRFIGELPEECVEEVRLRATVSRPVSHQRMGTPMVENDSGYKLGQRVRHAKFGEGTIVNMEGSGEHSRLQVAFQGQGIKWLVAAYARLESV
notes: UvrD helicase (Helicase II), E. coli, full-length, residues 1-720; The His6 tag is called uncleavable; Used [U-2H,15N] labelled in the NMR experiments; also called UvrD-FL; UvrD full-length; source: E. coli BL21(λDE3) pLysS, purified (Ni-NTA, SEC); not shown: His6, N-terminal, kept
- Kd [3]: 1 ± 0.13 µM
